Experiments:
[1] = target: human serum albumin (human) (UniProt P02768); assay: primary ELISA screen, HSA negative control
[2] = target: human serum albumin (human) (UniProt P02768); assay: primary ELISA of colonies, luminescence; negative control antigen

Chain of human serum albumin (human) (P02768 25-609 limits assumed): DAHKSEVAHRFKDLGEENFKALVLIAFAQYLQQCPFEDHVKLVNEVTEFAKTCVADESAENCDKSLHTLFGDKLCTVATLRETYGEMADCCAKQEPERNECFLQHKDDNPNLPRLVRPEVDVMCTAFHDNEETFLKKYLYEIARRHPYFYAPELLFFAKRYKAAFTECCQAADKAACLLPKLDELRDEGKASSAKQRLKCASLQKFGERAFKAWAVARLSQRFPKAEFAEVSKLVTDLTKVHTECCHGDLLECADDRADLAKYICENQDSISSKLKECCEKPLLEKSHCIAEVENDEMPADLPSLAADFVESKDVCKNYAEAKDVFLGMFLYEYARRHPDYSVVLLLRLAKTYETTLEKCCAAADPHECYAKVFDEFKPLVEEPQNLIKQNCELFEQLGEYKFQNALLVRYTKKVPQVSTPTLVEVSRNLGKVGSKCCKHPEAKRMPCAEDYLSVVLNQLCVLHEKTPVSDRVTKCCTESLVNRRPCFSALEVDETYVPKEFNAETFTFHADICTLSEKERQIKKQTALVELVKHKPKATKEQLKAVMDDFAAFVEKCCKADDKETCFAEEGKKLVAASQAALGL

| Binder | RLU [1] [RLU] | HSA, RLU [2] [RLU] |
| --- | --- | --- |
| CD71-binding FN3 domain of SEQ ID NO: 334 (designed binder, not shown: small tags and cut ends) MSLPAPKNLVVSRVTEDSARLSWTAPDAAFDSFEIAYQELSLWGEAIVLTVPGSERSYDLTGLKPGTEYWVQIGGVKGGIWSSPLVASFTT | 14400 | – |
| CD71-binding FN3 domain of SEQ ID NO: 110 (designed binder, not shown: small tags and cut ends) MLPAPKNLVVSRVTEDSARLSWTAPDAAFDSFHIVYHEPRPSGEAIYLEVPGSERSYDLTGLKPGTEYEVGIVSVKGGDLSVPLRAHFTT | – | 2500 |
| CD71-binding FN3 domain of SEQ ID NO: 114 (designed binder, not shown: small tags and cut ends) MLPAPKNLVVSRVTEDSARLSWTAPDAAFDSFHIVYHEPRPSGEAIWLFVPGSERSYDLTGLKPGTEYEVGIVSVKGGDLSVPLSAIFTT | – | 11600 |
| CD71-binding FN3 domain of SEQ ID NO: 338 (designed binder, not shown: small tags and cut ends) MSLPAPKNLVVSRVTEDSARLSWTAPDAAFDSFEIGYFENLYLGEAIVLTVPGSERSYDLTGLKPGTEYCVYICGVKGGRDSMPLSAIFTT | 40200 | – |
| CD71-binding FN3 domain of SEQ ID NO: 340 (designed binder, not shown: small tags and cut ends) MSLPAPKNLVVSRVTEDSSRLSWTAPDAAFDSFEIGYFENLYLGEAIVLTVPGSERSYDLTGLKPGTEYWVQIGGVKGGNWSAPLSAIFTT | 28300 | – |
| CD71-binding FN3 domain of SEQ ID NO: 345 (designed binder, not shown: small tags and cut ends) MSLPAPKNLVVSRVTEDSAHLSWTAPDAAFDSFEIGYFENDYFGEAIVLTVPGSERSYDLTGLKPGTEYVVFIGGVKGGKWSAPLSAIFTT | 23600 | – |
| CD71-binding FN3 domain of SEQ ID NO: 339 (designed binder, not shown: small tags and cut ends) MSLPAPKNLVVSRVTEDSARLSWTAPDAAFDSFEIGYWEMSYYGEAIVLTVPGSERSYDLTGLKPGTEYGVSIGGVKGGRWSLPLSAIFTT | 7050 | – |
| CD71-binding FN3 domain of SEQ ID NO: 344 (designed binder, not shown: small tags and cut ends) MSLPAPKNLFVSRVTEDSARLSWTAPDAAFDSFEIGYWENAYKGEAIVLTVPGSERSYDLTGLKPGTEYWVQIGGVKGGNWSAPLSAIFTT | 36900 | – |
| CD71-binding FN3 domain of SEQ ID NO: 116 (designed binder, not shown: small tags and cut ends) MLPAPKNLVVSRVTEDSARLSWTAPDAAFDSFYIAYAEPRPDGEAILLLVPGSERSYDLTGLKPGTEYSVLIHGVKGGLLSSPLIAGFTT | – | 2750 |
| CD71-binding FN3 domain of SEQ ID NO: 335 (designed binder, not shown: small tags and cut ends) MSLPAPKNLVVSRVTEDSARLSWTAPDAAFDSFFIGYLEPQPPGEAIDLYVPGSERSYDLTGLKPGTEYNVTIQGVKGGFPSLPLVATFTT | 57300 | – |
| CD71-binding FN3 domain of SEQ ID NO: 343 (designed binder, not shown: small tags and cut ends) MSLPAPKNLVVSRVTEDSARLSWTAPDAAFDSFFIGYLEPQPPGEAIALWVPGSERSYDLTGLKPGTEYNVTIQGVKGGFPSEPLVATFTT | 30400 | – |
| CD71-binding FN3 domain of SEQ ID NO: 337 (designed binder, not shown: small tags and cut ends) MSLPAPKNLVVSRVTEDSARLSWTAPDAAFDSFFIGYLEPQPPGEAIHLYVPGSERSYDLTGLKPGTEYNVTIQGVKGGFPSIPLIASFTT | 17200 | – |
| CD71-binding FN3 domain of SEQ ID NO: 341 (designed binder, not shown: small tags and cut ends) MSLPAPKNLVVSRVTEDSARLSWTAPDAAFDSFFIGYLEPQPPGEAIELYVPGSERSYDLTGLKPGTEYNVTIQGVKGGFPSLPLVAIFTT | 58000 | – |
| CD71-binding FN3 domain of SEQ ID NO: 342 (designed binder, not shown: small tags and cut ends) MSLPAPKNLVVSRVTEDSARLSWTAPDAAFDSFFIGYLEPQPPGEAIVLTVPGSERSYDLTGLKPGTEYNVTIQGVKGGFPSEPLIANFTT | 425000 | – |
| CD71-binding FN3 domain of SEQ ID NO: 109 (designed binder, not shown: small tags and cut ends) MLPAPKNLVVSRVTEDSARLSWTAPDAAFDSFFIGYLEPQPPGEAIILHVPGSERSYDLTGLKPGTEYNVTIQGVKGGFPSLPLNANFTT | – | 3250 |
| CD71-binding FN3 domain of SEQ ID NO: 115 (designed binder, not shown: small tags and cut ends) MLPAPKNLVVSRVTEDSARLSWTAPDAAFDSFFIGYLEPQPPGEAIDLYVPGSERSYDLTGLKPGIEYNVTIQGVKGGFPSLPLQAHFTT | – | 5200 |
| CD71-binding FN3 domain of SEQ ID NO: 113 (designed binder, not shown: small tags and cut ends) MLPAPKNLVVSRVTEDSARLSWTAPDAAFDSFFIGYLEPQPPGEAIYLLVPGSERSYDLTGLKPGTEYNVTIQGVKGGFPSDPLSAIFTT | – | 2800 |
| CD71-binding FN3 domain of SEQ ID NO: 112 (designed binder, not shown: small tags and cut ends) MLPAPKNLVVSRVTEDSARLSWTAPDAAFDSFFIGYLEPQPPGEAIDLWVPGSERSYDLTGLKPGTEYNVTIQGVKGGFPSMPLSAIFTT | – | 2650 |
| CD71-binding FN3 domain of SEQ ID NO: 111 (designed binder, not shown: small tags and cut ends) MLPAPKNLVVSRVTEDSARLSWTAPDAAFDSFFIGYLEPQPPGEAISLWVPGSERSYDLTGLKPGTEYNVTIQGVKGGFPSIPLWAIFTT | – | 2600 |
| CD71-binding FN3 domain of SEQ ID NO: 336 (designed binder, not shown: small tags and cut ends) MSLPAPKNLVVSRVTEDSARLSWTAPDAAFDSFNIMYHEHYDNGEAIVLTVPGSERSYDLTGLKPGTEYSVVINGVKGGPHSAPLSAIFTT | 16800 | – |

Source: patent US20260151494A1
